The text below walks through data of publication PMC8956599.

pKd: −log10 of the molar value.

The target in this series is T1, translation initiation factor IF3 (Escherichia coli) (UniProt P0A707).
T1 sequence: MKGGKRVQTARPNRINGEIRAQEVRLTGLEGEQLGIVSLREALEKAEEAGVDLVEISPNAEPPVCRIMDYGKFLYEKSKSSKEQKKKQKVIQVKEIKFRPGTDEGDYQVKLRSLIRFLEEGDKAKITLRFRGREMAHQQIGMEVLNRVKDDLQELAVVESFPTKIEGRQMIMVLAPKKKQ
Nature of the series: fluorescence anisotropy. The conditions noted are these: Binding buffer and temperature not given in material; EMSA gels in Tris/acetate or Tris/borate; anisotropy with 200 nM RNA and DFHBI-1T; protein storage buffer …. (In general: Fluorescence polarisation rises when a labelled molecule tumbles more slowly, as on binding a larger partner.)

Usually pKd stands for the Kd on a negative log10 scale, so that one unit is a factor of ten. For “GGGUGGUAACUAGCCAAGCAGCUAGUUACCAAAUCGGGAGAAUCCCGGGUCCUCUCUUUAGGGGGAGGUCCCUGGGCCGAAGCCCGCCCACCUUUCGGUGGAGCCGGACCGCUUUCGCACCCGUGCUCUUUCGAGCACACCCACCCCGUUUACGGGGGUCCCUCGGUCAGCUACCGAGGAGUUGCCAUGUGUAUGUGGGAGACGGUCGGGUCCAGAUAUUCGUAUCUGUCGAGUAGAGUGUGGGCUCCCACAUACUCUGAUGAUCCUUCGGGAUCAUUCAUGGCAAAAACCUCCUAGGAAUGGAAUUCCGGCUACCUACAGCGAUAGCCAUGGUAGCGUCUCGCUAAAGACAUUAAAAAUGGCAUUAGCUCGACAGGAAGUUGAGCAGGACCCCGAAAGGGGUCCCACCC [[F30-Bro(+)]UTR(-)]”, the pKd was 5.46.
